The record followed here is the Human Domainome abundance scans (Beltran et al. 2025).

Sequences and labels used below:
B1: Cullin-9, residues 2234 to 2275; numbered along this chain, Q8IWT3 (parent)
chain: KRCPSCQAPIEKNEGCLHMTCAKCNHGFCWRCLKSWKPNHKD

± gives the uncertainty stated by the source.

The variants in the data set derive from B1. Description: abundance fitness (aPCA) (normalised: wild type 0, dead -1); higher = more abundant; growth selection in yeast, the domain comes from the species named. Particulars: Homo sapiens.
Regarding KRCPSCQAPIEKNEGCLHMTCYKCNHGFCWRCLKSWKPNHKD, the abundance fitness turned out to be 0.082 ± 0.21. As for KRCPSCDAPIEKNEGCLHMTCAKCNHGFCWRCLKSWKPNHKD, the figure is 0.538 ± 0.24; as for KRCPSCTAPIEKNEGCLHMTCAKCNHGFCWRCLKSWKPNHKD, -0.073 ± 0.28; as for KRCPSCEAPIEKNEGCLHMTCAKCNHGFCWRCLKSWKPNHKD, 0.089 ± 0.11. As for KRCPSCQAPIEKNEGCLHMTCAKCNHGFCWRKLKSWKPNHKD, the figure is -0.677 ± 0.18; as for KRCPSCQAPIEKNEGCLHMTCAKCNHGFCWRVLKSWKPNHKD, -0.983 ± 0.12; as for KRCPSCQAPIEKNEGCLHMTCAKCNHGFCWRLLKSWKPNHKD, -0.939 ± 0.11. For KRCPSCQAPIEKNEGCLHLTCAKCNHGFCWRCLKSWKPNHKD the value was -0.034 ± 0.092; for KRCPSCQAPIEKNEGCLHGTCAKCNHGFCWRCLKSWKPNHKD, -0.22 ± 0.074; for KRCPSCQAPIEKNEGCLHKTCAKCNHGFCWRCLKSWKPNHKD, 0.003 ± 0.13. Take KRCPSCQAPIEKNEGCLHPTCAKCNHGFCWRCLKSWKPNHKD: the abundance fitness is 0.012 ± 0.1. For KRCPSCQAPIEKNEGCLHSTCAKCNHGFCWRCLKSWKPNHKD the value was 0.016 ± 0.097; for KRCPSCQAPIEKNEGCLHCTCAKCNHGFCWRCLKSWKPNHKD, -0.012 ± 0.13; for KRCPSCQAPIEKNEGCLHMTCAKCNHGFCWRCLKSWKVNHKD, -0.212 ± 0.079. As for KRCPSCQAPIEKNEGCLHMTCAKCNHGFCWRCLKSWKENHKD, the figure is 0.184 ± 0.11; as for KRCPSCQAPIEKNEGCLHMTCAKCNHGFCWRCLKSWKFNHKD, 0.042 ± 0.26. For KRCPSCQAPIEKNEGCLHMTCAKCNHGFCWRCLKSWKTNHKD the value was -0.204 ± 0.19; for KRCPPCQAPIEKNEGCLHMTCAKCNHGFCWRCLKSWKPNHKD, -0.401 ± 0.1. As for KRCPSCQAPIEKNEGCLHMTCAKCNHGFRWRCLKSWKPNHKD, the abundance fitness was -0.888 ± 0.096. For KRCPSCQAPIEKNEGCLHMTCAKCNHGFNWRCLKSWKPNHKD the value was -0.761 ± 0.39; for KRCPSCQAPIEKNEGCLHMTCAKCNHGFAWRCLKSWKPNHKD, -0.76 ± 0.11; for KRCPSCQAPIEKNEGCLHMTCAKCNPGFCWRCLKSWKPNHKD, -0.154 ± 0.098. For KRCPSCQAPIEKNEGCLHMTCAKCNMGFCWRCLKSWKPNHKD the value was -0.109 ± 0.12; for KRCPSCQAPIEKNEGCLHMTCAKCNKGFCWRCLKSWKPNHKD, -0.314 ± 0.16; for KRCPSCQAPIEKNEGCLHMTCAKCNTGFCWRCLKSWKPNHKD, -0.226 ± 0.16. In the case of KRCPSCQAPIEKNEGCLHMTCAKCNHGFCWKCLKSWKPNHKD, the abundance fitness amounted to 0.371 ± 0.11. For KRCPSCQAPIEKNEGCLHMTCAKCNHGFCWDCLKSWKPNHKD the value was 0.119 ± 0.11. As for KRCPSCQAPIEKNEGCLHMTCAKCNHTFCWRCLKSWKPNHKD, the figure is 0.326 ± 0.11; as for VRCPSCQAPIEKNEGCLHMTCAKCNHGFCWRCLKSWKPNHKD, -0.46 ± 0.11.

KRCPSMQAPIEKNEGCLHMTCAKCNHGFCWRCLKSWKPNHKD: the abundance fitness is -0.447 ± 0.12. As for KRCPSYQAPIEKNEGCLHMTCAKCNHGFCWRCLKSWKPNHKD, the abundance fitness is -0.518 ± 0.15. As for KRCPSGQAPIEKNEGCLHMTCAKCNHGFCWRCLKSWKPNHKD, the figure is -0.126 ± 0.079; as for KRCPSHQAPIEKNEGCLHMTCAKCNHGFCWRCLKSWKPNHKD, -0.222 ± 0.11. For KRCPSCQAPIHKNEGCLHMTCAKCNHGFCWRCLKSWKPNHKD the value was -0.138 ± 0.3; for KRCPSCQAPITKNEGCLHMTCAKCNHGFCWRCLKSWKPNHKD, -0.159 ± 0.15.

Take KRCPSCQAPIPKNEGCLHMTCAKCNHGFCWRCLKSWKPNHKD: the abundance fitness is -0.309 ± 0.17. As for KRCPSCQAPIDKNEGCLHMTCAKCNHGFCWRCLKSWKPNHKD, the figure is -0.137 ± 0.2; as for KRCPSCQAPIEKSEGCLHMTCAKCNHGFCWRCLKSWKPNHKD, -0.096 ± 0.1; as for KRCPSCQAPIEKCEGCLHMTCAKCNHGFCWRCLKSWKPNHKD, -0.101 ± 0.15. As for KRCPSCQAPIEKVEGCLHMTCAKCNHGFCWRCLKSWKPNHKD, the figure is 0.051 ± 0.085; as for KRCPSCQAPIEKNEGCLHMTCAMCNHGFCWRCLKSWKPNHKD, -0.323 ± 0.14. In the case of KRCPSCQAPPEKNEGCLHMTCAKCNHGFCWRCLKSWKPNHKD, the abundance fitness was -0.536 ± 0.17. Turning to KRCPSCQAPGEKNEGCLHMTCAKCNHGFCWRCLKSWKPNHKD, the abundance fitness was -0.303 ± 0.081. As for KRCPSCQAPSEKNEGCLHMTCAKCNHGFCWRCLKSWKPNHKD, the figure is -0.233 ± 0.095; as for KRCPSCQAPEEKNEGCLHMTCAKCNHGFCWRCLKSWKPNHKD, 0.059 ± 0.13; as for KRCPSCQAPKEKNEGCLHMTCAKCNHGFCWRCLKSWKPNHKD, -0.598 ± 0.16. As for KRCPSCQAPIEKNEGCLHMTCAKCNHGFCWRCLKSWKPAHKD, the figure is 0.017 ± 0.08. Turning to KRCPSCQAPIEKNEGCLHMTCAKCNHGFCWRCLKSWKPYHKD, the abundance fitness was -0.384 ± 0.29. For KRCPSCQAPIEKNEGCLHMTCAKCNHGFCWRCLKSWKPHHKD the value was -0.377 ± 0.14; for KRCPSCQAPIEKNEGCLHMTCAKCNHGFCWRCLKSWKPTHKD, 0.16 ± 0.096; for KRCPSCQAPIEKNEGCLHMTCAKCNHGFCWRCLKSWKPVHKD, -0.095 ± 0.09. As to KRCPSCQAPIEKNEGCLHMTCAKCNHGFCWRCLKSWKPLHKD, the abundance fitness came out at 0.001 ± 0.078. For KRCPSCQAPIEKNEGCLHMTCAKCNHGFCWRCLKSWKPKHKD the value was 0.045 ± 0.14; for KRCMSCQAPIEKNEGCLHMTCAKCNHGFCWRCLKSWKPNHKD, -0.079 ± 0.11; for KRCSSCQAPIEKNEGCLHMTCAKCNHGFCWRCLKSWKPNHKD, -0.129 ± 0.099. Turning to KRCQSCQAPIEKNEGCLHMTCAKCNHGFCWRCLKSWKPNHKD, the abundance fitness is -0.351 ± 0.11. As for KRCHSCQAPIEKNEGCLHMTCAKCNHGFCWRCLKSWKPNHKD, the figure is -0.022 ± 0.32; as for KRCDSCQAPIEKNEGCLHMTCAKCNHGFCWRCLKSWKPNHKD, -1.47 ± 0.39; as for KRCYSCQAPIEKNEGCLHMTCAKCNHGFCWRCLKSWKPNHKD, 0.231 ± 0.17. For KVCPSCQAPIEKNEGCLHMTCAKCNHGFCWRCLKSWKPNHKD the value was -0.2 ± 0.094.
